3 substances from article PMC8752827, “Towards a generic prototyping approach for therapeutically-relevant peptides and proteins in a cell-free translation system” (Nature Communications, 2022) can be followed below.

Sequence of Trypsin (P00760 24-246): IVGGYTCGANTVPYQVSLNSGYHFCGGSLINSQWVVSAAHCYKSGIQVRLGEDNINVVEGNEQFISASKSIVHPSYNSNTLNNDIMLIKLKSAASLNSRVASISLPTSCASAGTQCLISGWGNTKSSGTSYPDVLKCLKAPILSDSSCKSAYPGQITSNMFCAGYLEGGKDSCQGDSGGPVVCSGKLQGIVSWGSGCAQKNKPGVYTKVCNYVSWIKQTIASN

This assay addresses Trypsin. The assay can be described thus: trypsin-inhibitory assay (residual enzyme activity on a fluorogenic substrate); 100 pM trypsin pre-incubated with peptide (twofold dilution series) for 3 h at room temperature in 0.1 M NaCl, 10 mM CaCl2, 0.005% Triton X-100, 0.1 M Tris-HCl pH 8.0; residual activity with 10 uM Boc-Q-A-R-7-amido-4-methyl-coumarin; IC50 from a nonlinear fit of initial velocities (Prism).
“cell-free synthesized linear oxidized circularly permuted SFTI (prmSFTI) (peptide)”: the IC50 (commonly the concentration needed to halve the response being measured) amounted to 0.332 nM.

In turn, “chemically synthesized backbone-cyclic sunflower trypsin inhibitor (SFTI) (peptide)” returned a half-inhibitory concentration (IC50) of 0.171 nM. This IC50 lies about 1.9-fold lower than the previous one. In the case of “chemically synthesized linear oxidized circularly permuted SFTI (prmSFTI) (peptide)” it was 0.361 nM.
